Sequences and labels used below:
B1: Pistol ribozyme (parent)
chain: GGGUCGUUGUUCCAUAAUCGCGUGGAUAUGGCACGCAAGUUUCUACCGGGCACCGUAAAUGUCCGACUGGAGCCGUUCGGGCGGCUAUAAACAGACCUCAGGCCCGAAGCGUGGCGGCACCUGCCGCCGGUGGUAAAAAAGAUCGGAAGAGCACACGUCU

The variants in the series derive from B1. Description: aptazyme ON/OFF ratio, guanine; higher = stronger switching; co-transcriptional cleavage with and without guanine.
For GGGUCGCGUAUGCAUAAUCGCGUGGAUAUGGCACGCAAGUUUCUACCGGGCACCGUAAAUGUCCGACUGGAGCCGUUCGGGCGGCUAUAAACAGACCUCAGGCCCGAAGCGUGGCGGCACCUGCCGCCGGUGGUAAAAAAGAUCGGAAGAGCACACGUCU [U7C U8G G9U U10A C12G], the “aptazyme ON/OFF ratio” value was determined as 1.18.
The value for GGGUCGCGUAUACAUAAUCGCGUGGAUAUGGCACGCAAGUUUCUACCGGGCACCGUAAAUGUCCGACUGGAGCCGUUCGGGCGGCUAUAAACAGACCUCAGGCCCGAAGCGUGGCGGCACCUGCCGCCGGUGGUAAAAAAGAUCGGAAGAGCACACGUCU [U7C U8G G9U U10A C12A] was 1.33; that for GGGUCGCGCUGCAAUAAUCGCGUGGAUAUGGCACGCAAGUUUCUACCGGGCACCGUAAAUGUCCGACUGGAGCCGUUCGGGCGGCUAUAAACAGACCUCAGGCCCGAAGCGUGGCGGCACCUGCCGCCGGUGGUAAAAAAGAUCGGAAGAGCACACGUCU [U7C U8G G9C U11G C13A] was 1.18; that for GGGUCGCGCUGCGAUAAUCGCGUGGAUAUGGCACGCAAGUUUCUACCGGGCACCGUAAAUGUCCGACUGGAGCCGUUCGGGCGGCUAUAAACAGACCUCAGGCCCGAAGCGUGGCGGCACCUGCCGCCGGUGGUAAAAAAGAUCGGAAGAGCACACGUCU [U7C U8G G9C U11G C13G] was 1.03.
The figure for GGGUCGCGCUGCUAUAAUCGCGUGGAUAUGGCACGCAAGUUUCUACCGGGCACCGUAAAUGUCCGACUGGAGCCGUUCGGGCGGCUAUAAACAGACCUCAGGCCCGAAGCGUGGCGGCACCUGCCGCCGGUGGUAAAAAAGAUCGGAAGAGCACACGUCU [U7C U8G G9C U11G C13U] is 1.15; for GGGUCGCGUUUCCAUAAUCGCGUGGAUAUGGCACGCAAGUUUCUACCGGGCACCGUAAAUGUCCGACUGGAGCCGUUCGGGCGGCUAUAAACAGACCUCAGGCCCGAAGCGUGGCGGCACCUGCCGCCGGUGGUAAAAAAGAUCGGAAGAGCACACGUCU [U7C U8G G9U] it is 3.71; for GGGUCGCGCUGGUAUAAUCGCGUGGAUAUGGCACGCAAGUUUCUACCGGGCACCGUAAAUGUCCGACUGGAGCCGUUCGGGCGGCUAUAAACAGACCUCAGGCCCGAAGCGUGGCGGCACCUGCCGCCGGUGGUAAAAAAGAUCGGAAGAGCACACGUCU [U7C U8G G9C U11G C12G C13U] it is 1.09.
Take GGGUCGCGCUGGAAUAAUCGCGUGGAUAUGGCACGCAAGUUUCUACCGGGCACCGUAAAUGUCCGACUGGAGCCGUUCGGGCGGCUAUAAACAGACCUCAGGCCCGAAGCGUGGCGGCACCUGCCGCCGGUGGUAAAAAAGAUCGGAAGAGCACACGUCU [U7C U8G G9C U11G C12G C13A]: the “aptazyme ON/OFF ratio” value was found to be 1.13.
The value for GGGUCGCGCUGGGAUAAUCGCGUGGAUAUGGCACGCAAGUUUCUACCGGGCACCGUAAAUGUCCGACUGGAGCCGUUCGGGCGGCUAUAAACAGACCUCAGGCCCGAAGCGUGGCGGCACCUGCCGCCGGUGGUAAAAAAGAUCGGAAGAGCACACGUCU [U7C U8G G9C U11G C12G C13G] was 1.1; that for GGGUCGCGCUGGCAUAAUCGCGUGGAUAUGGCACGCAAGUUUCUACCGGGCACCGUAAAUGUCCGACUGGAGCCGUUCGGGCGGCUAUAAACAGACCUCAGGCCCGAAGCGUGGCGGCACCUGCCGCCGGUGGUAAAAAAGAUCGGAAGAGCACACGUCU [U7C U8G G9C U11G C12G] was 1.19.
Take GGGUCGCGCUGUCAUAAUCGCGUGGAUAUGGCACGCAAGUUUCUACCGGGCACCGUAAAUGUCCGACUGGAGCCGUUCGGGCGGCUAUAAACAGACCUCAGGCCCGAAGCGUGGCGGCACCUGCCGCCGGUGGUAAAAAAGAUCGGAAGAGCACACGUCU [U7C U8G G9C U11G C12U]: the “aptazyme ON/OFF ratio” value was found to be 1.23.
The figure for GGGUCGCGUUUUUAUAAUCGCGUGGAUAUGGCACGCAAGUUUCUACCGGGCACCGUAAAUGUCCGACUGGAGCCGUUCGGGCGGCUAUAAACAGACCUCAGGCCCGAAGCGUGGCGGCACCUGCCGCCGGUGGUAAAAAAGAUCGGAAGAGCACACGUCU [U7C U8G G9U C12U C13U] is 1.2; for GGGUCGCGUUUUAAUAAUCGCGUGGAUAUGGCACGCAAGUUUCUACCGGGCACCGUAAAUGUCCGACUGGAGCCGUUCGGGCGGCUAUAAACAGACCUCAGGCCCGAAGCGUGGCGGCACCUGCCGCCGGUGGUAAAAAAGAUCGGAAGAGCACACGUCU [U7C U8G G9U C12U C13A] it is 1.31; for GGGUCGCGUUUUGAUAAUCGCGUGGAUAUGGCACGCAAGUUUCUACCGGGCACCGUAAAUGUCCGACUGGAGCCGUUCGGGCGGCUAUAAACAGACCUCAGGCCCGAAGCGUGGCGGCACCUGCCGCCGGUGGUAAAAAAGAUCGGAAGAGCACACGUCU [U7C U8G G9U C12U C13G] it is 1.33.
With GGGUCGCGCUGAUAUAAUCGCGUGGAUAUGGCACGCAAGUUUCUACCGGGCACCGUAAAUGUCCGACUGGAGCCGUUCGGGCGGCUAUAAACAGACCUCAGGCCCGAAGCGUGGCGGCACCUGCCGCCGGUGGUAAAAAAGAUCGGAAGAGCACACGUCU [U7C U8G G9C U11G C12A C13U], the “aptazyme ON/OFF ratio” value came out at 1.14.
The figure for GGGUCGCGUUUAAAUAAUCGCGUGGAUAUGGCACGCAAGUUUCUACCGGGCACCGUAAAUGUCCGACUGGAGCCGUUCGGGCGGCUAUAAACAGACCUCAGGCCCGAAGCGUGGCGGCACCUGCCGCCGGUGGUAAAAAAGAUCGGAAGAGCACACGUCU [U7C U8G G9U C12A C13A] is 1.42; for GGGUCGCGUUUAUAUAAUCGCGUGGAUAUGGCACGCAAGUUUCUACCGGGCACCGUAAAUGUCCGACUGGAGCCGUUCGGGCGGCUAUAAACAGACCUCAGGCCCGAAGCGUGGCGGCACCUGCCGCCGGUGGUAAAAAAGAUCGGAAGAGCACACGUCU [U7C U8G G9U C12A C13U] it is 1.37; for GGGUCGCGUUUAGAUAAUCGCGUGGAUAUGGCACGCAAGUUUCUACCGGGCACCGUAAAUGUCCGACUGGAGCCGUUCGGGCGGCUAUAAACAGACCUCAGGCCCGAAGCGUGGCGGCACCUGCCGCCGGUGGUAAAAAAGAUCGGAAGAGCACACGUCU [U7C U8G G9U C12A C13G] it is 1.27.
The value for GGGUCGCGCUGUGAUAAUCGCGUGGAUAUGGCACGCAAGUUUCUACCGGGCACCGUAAAUGUCCGACUGGAGCCGUUCGGGCGGCUAUAAACAGACCUCAGGCCCGAAGCGUGGCGGCACCUGCCGCCGGUGGUAAAAAAGAUCGGAAGAGCACACGUCU [U7C U8G G9C U11G C12U C13G] was 1.21; that for GGGUCGCGCUGUAAUAAUCGCGUGGAUAUGGCACGCAAGUUUCUACCGGGCACCGUAAAUGUCCGACUGGAGCCGUUCGGGCGGCUAUAAACAGACCUCAGGCCCGAAGCGUGGCGGCACCUGCCGCCGGUGGUAAAAAAGAUCGGAAGAGCACACGUCU [U7C U8G G9C U11G C12U C13A] was 1.2; that for GGGUCGCGCUGUUAUAAUCGCGUGGAUAUGGCACGCAAGUUUCUACCGGGCACCGUAAAUGUCCGACUGGAGCCGUUCGGGCGGCUAUAAACAGACCUCAGGCCCGAAGCGUGGCGGCACCUGCCGCCGGUGGUAAAAAAGAUCGGAAGAGCACACGUCU [U7C U8G G9C U11G C12U C13U] was 1.37.
The value for GGGUCGCGUAUCCAUAAUCGCGUGGAUAUGGCACGCAAGUUUCUACCGGGCACCGUAAAUGUCCGACUGGAGCCGUUCGGGCGGCUAUAAACAGACCUCAGGCCCGAAGCGUGGCGGCACCUGCCGCCGGUGGUAAAAAAGAUCGGAAGAGCACACGUCU [U7C U8G G9U U10A] was 1.12; that for GGGUCGCGUAUGAAUAAUCGCGUGGAUAUGGCACGCAAGUUUCUACCGGGCACCGUAAAUGUCCGACUGGAGCCGUUCGGGCGGCUAUAAACAGACCUCAGGCCCGAAGCGUGGCGGCACCUGCCGCCGGUGGUAAAAAAGAUCGGAAGAGCACACGUCU [U7C U8G G9U U10A C12G C13A] was 1.13.
For the variant GGGUCGCGUAUGGAUAAUCGCGUGGAUAUGGCACGCAAGUUUCUACCGGGCACCGUAAAUGUCCGACUGGAGCCGUUCGGGCGGCUAUAAACAGACCUCAGGCCCGAAGCGUGGCGGCACCUGCCGCCGGUGGUAAAAAAGAUCGGAAGAGCACACGUCU [U7C U8G G9U U10A C12G C13G], the “aptazyme ON/OFF ratio” value turned out to be 1.18.
The value for GGGUCGCGUUUACAUAAUCGCGUGGAUAUGGCACGCAAGUUUCUACCGGGCACCGUAAAUGUCCGACUGGAGCCGUUCGGGCGGCUAUAAACAGACCUCAGGCCCGAAGCGUGGCGGCACCUGCCGCCGGUGGUAAAAAAGAUCGGAAGAGCACACGUCU [U7C U8G G9U C12A] was 1.64; that for GGGUCGCGUUUGCAUAAUCGCGUGGAUAUGGCACGCAAGUUUCUACCGGGCACCGUAAAUGUCCGACUGGAGCCGUUCGGGCGGCUAUAAACAGACCUCAGGCCCGAAGCGUGGCGGCACCUGCCGCCGGUGGUAAAAAAGAUCGGAAGAGCACACGUCU [U7C U8G G9U C12G] was 1.78.
The figure for GGGUCGCGUUUUCAUAAUCGCGUGGAUAUGGCACGCAAGUUUCUACCGGGCACCGUAAAUGUCCGACUGGAGCCGUUCGGGCGGCUAUAAACAGACCUCAGGCCCGAAGCGUGGCGGCACCUGCCGCCGGUGGUAAAAAAGAUCGGAAGAGCACACGUCU [U7C U8G G9U C12U] is 1.97.
The value for GGGUCGCGUAUAUAUAAUCGCGUGGAUAUGGCACGCAAGUUUCUACCGGGCACCGUAAAUGUCCGACUGGAGCCGUUCGGGCGGCUAUAAACAGACCUCAGGCCCGAAGCGUGGCGGCACCUGCCGCCGGUGGUAAAAAAGAUCGGAAGAGCACACGUCU [U7C U8G G9U U10A C12A C13U] was 1.22.
For the variant GGGUCGCGUAUAAAUAAUCGCGUGGAUAUGGCACGCAAGUUUCUACCGGGCACCGUAAAUGUCCGACUGGAGCCGUUCGGGCGGCUAUAAACAGACCUCAGGCCCGAAGCGUGGCGGCACCUGCCGCCGGUGGUAAAAAAGAUCGGAAGAGCACACGUCU [U7C U8G G9U U10A C12A C13A], the “aptazyme ON/OFF ratio” value is 1.15.
The value for GGGUCGCGUAUAGAUAAUCGCGUGGAUAUGGCACGCAAGUUUCUACCGGGCACCGUAAAUGUCCGACUGGAGCCGUUCGGGCGGCUAUAAACAGACCUCAGGCCCGAAGCGUGGCGGCACCUGCCGCCGGUGGUAAAAAAGAUCGGAAGAGCACACGUCU [U7C U8G G9U U10A C12A C13G] was 1.15; that for GGGUCGCGUUUGUAUAAUCGCGUGGAUAUGGCACGCAAGUUUCUACCGGGCACCGUAAAUGUCCGACUGGAGCCGUUCGGGCGGCUAUAAACAGACCUCAGGCCCGAAGCGUGGCGGCACCUGCCGCCGGUGGUAAAAAAGAUCGGAAGAGCACACGUCU [U7C U8G G9U C12G C13U] was 1.28; that for GGGUCGCGUUUGGAUAAUCGCGUGGAUAUGGCACGCAAGUUUCUACCGGGCACCGUAAAUGUCCGACUGGAGCCGUUCGGGCGGCUAUAAACAGACCUCAGGCCCGAAGCGUGGCGGCACCUGCCGCCGGUGGUAAAAAAGAUCGGAAGAGCACACGUCU [U7C U8G G9U C12G C13G] was 1.25.
In the case of GGGUCGCGUUUGAAUAAUCGCGUGGAUAUGGCACGCAAGUUUCUACCGGGCACCGUAAAUGUCCGACUGGAGCCGUUCGGGCGGCUAUAAACAGACCUCAGGCCCGAAGCGUGGCGGCACCUGCCGCCGGUGGUAAAAAAGAUCGGAAGAGCACACGUCU [U7C U8G G9U C12G C13A], the “aptazyme ON/OFF ratio” value was determined as 1.17.
The figure for GGGUCGCGUUUCUAUAAUCGCGUGGAUAUGGCACGCAAGUUUCUACCGGGCACCGUAAAUGUCCGACUGGAGCCGUUCGGGCGGCUAUAAACAGACCUCAGGCCCGAAGCGUGGCGGCACCUGCCGCCGGUGGUAAAAAAGAUCGGAAGAGCACACGUCU [U7C U8G G9U C13U] is 1.55; for GGGUCGCGUUUCAAUAAUCGCGUGGAUAUGGCACGCAAGUUUCUACCGGGCACCGUAAAUGUCCGACUGGAGCCGUUCGGGCGGCUAUAAACAGACCUCAGGCCCGAAGCGUGGCGGCACCUGCCGCCGGUGGUAAAAAAGAUCGGAAGAGCACACGUCU [U7C U8G G9U C13A] it is 1.31.
The value for GGGUCGCGUUUCGAUAAUCGCGUGGAUAUGGCACGCAAGUUUCUACCGGGCACCGUAAAUGUCCGACUGGAGCCGUUCGGGCGGCUAUAAACAGACCUCAGGCCCGAAGCGUGGCGGCACCUGCCGCCGGUGGUAAAAAAGAUCGGAAGAGCACACGUCU [U7C U8G G9U C13G] was 1.06.

The record behind these values is the RNAGym collection of RNA variant scans (doi:10.1021/acssynbio.7b00057).
